How the values were obtained:
[1] = biological target: DNA polymerase I (Escherichia coli) (UniProt P00582)
[2] = biological target: MBP-UmuC fusion protein (maltose binding protein fused to UmuC, DNA polymerase V) (Escherichia coli)
[3] = biological target: DNA polymerase III holoenzyme
[4] = biological target: DNA polymerase II (Escherichia coli) (UniProt P21189)

Row | Substance | Cro- mutation frequency after gap-filling replication by pol I with UmuD', RecA, SSB (Cro- mutation frequency per gene) [1] | Cro- mutation frequency after in vitro gap-filling replication, SSB omitted (Cro- mutation frequency per gene) [2] | Cro- mutation frequency after gap-filling replication by pol III holoenzyme with UmuD', RecA, SSB (Cro- mutation frequency per gene) [3] | Cro- mutation frequency after gap-filling replication by pol II with UmuD', RecA, SSB (Cro- mutation frequency per gene) [4] | Cro- mutation frequency after in vitro gap-filling replication, UmuD' omitted (Cro- mutation frequency per gene) [2] | Cro- mutation frequency after in vitro gap-filling replication, RecA omitted (Cro- mutation frequency per gene) [2]
1 | SSB (single stranded DNA-binding protein) (from UniProt P0AGE0) | 0.00078 | 0.00051 | 0.00081 | 0.00065 | – | –
2 | UmuD' (from UniProt P0AG11) | 0.00078 | – | 0.00081 | 0.00065 | 0.00027 | –
3 | RecA (from UniProt P0A7G6) | 0.00078 | – | 0.00081 | 0.00065 | – | 0.00025

From patent publication US6333178
